Biological target: soluble recombinant cynomolgus TCR α/β-zipper protein (cynomolgus/rhesus monkey)
Assay: ELISA, 2 µg/mL coated soluble recombinant cynomolgus TCR α/β-zipper protein

Sequence of soluble recombinant cynomolgus TCR α/β-zipper protein (cynomolgus/rhesus monkey) (alpha, as listed by the source limits assumed, form in doubt, chain 1 of 2): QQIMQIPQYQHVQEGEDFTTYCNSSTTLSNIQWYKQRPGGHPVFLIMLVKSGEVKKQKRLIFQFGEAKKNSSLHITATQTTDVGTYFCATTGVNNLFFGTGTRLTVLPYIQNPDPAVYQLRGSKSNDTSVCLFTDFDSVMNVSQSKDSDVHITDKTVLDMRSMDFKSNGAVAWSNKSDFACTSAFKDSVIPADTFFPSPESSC
Sequence of soluble recombinant cynomolgus TCR α/β-zipper protein (cynomolgus/rhesus monkey) (beta, as listed by the source limits assumed, form in doubt, chain 2 of 2): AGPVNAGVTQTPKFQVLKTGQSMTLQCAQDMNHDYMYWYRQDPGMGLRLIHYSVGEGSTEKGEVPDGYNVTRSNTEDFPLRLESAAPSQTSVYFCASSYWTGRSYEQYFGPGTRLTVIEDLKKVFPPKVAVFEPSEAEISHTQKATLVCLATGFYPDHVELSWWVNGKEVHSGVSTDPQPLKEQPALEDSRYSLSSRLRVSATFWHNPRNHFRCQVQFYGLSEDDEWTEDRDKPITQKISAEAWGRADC

In the case of “anti-non-human primate/Rat TCRα/β antibody clone R73”, the EC50 (read off the curve) is reported as 0.1 nM.

Reference: patent US20240199740A1
